Results on 75 sequences are retold here after the supplement of paper PMC7877785.

This data set in a line: self-splicing fitness, log relative to wild type (ln ratio); higher = more splicing; Tetrahymena group I intron in knt gene, E. coli kanamycin selection, DiMSum; sequences stand for … in CUCUCU…GGAGGGAAAAGUUAUCAGGCAUGCACCUGGUAGCUAGUCUUUAAACCAAUAGAUUGCAUCGGUUUAAAAGGCAAGACCGUCAAAUUGCGGGAAAGGGGUCAACAGCCGUUCAGUACCAAGUCUCAGGGGAAACUUUGAGAUGGCCUUGCAAAGGGUAUGGUAAUAAGCUGACGGACAUGGUCCUAACCACGCAGCCAAGUCCUAAGUCAACAGAUCUUCUGUUGAUAUGGAUGCAGUUCACAGACUAAAUGUCGGUCGGGGAAGAUGUAUUCUUCUCAUAAGAUAUAGUCGGACCUCUCCUUAAUGGGAGCUAGCGGAUGAAGUGAUGCAACACUGGAGCCGCUGGGAACUAAUUUGUAUGCGAAAGUAUAUUGAUUAGUUUUGGAGUACUCGUGGUCG
In a few lines: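 Fitness was computed with DiMSum as the error-weighted combination of replicate fold changes, kanamycin versus none, each normalised to wild type. The library randomised all eight intron nucleotides of the P1ex region, with the intron placed in the knt kanamycin-resistance gene on pET-22b(+) in E. coli BL21(DE3). Six replicate transformations were grown overnight at 37°C or 30°C on LB agar with or without 25 μg/mL kanamycin, plus 100 μg/mL carbenicillin, 50 μM IPTG and 0.2% rhamnose. Pooled colonies were amplicon-sequenced on an Illumina HiSeq 2500.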

± gives the uncertainty stated by the source.

As for ACUUAGCAAUAUUACGCAUU, the “self-splicing fitness (ln)” value (30 °C) is -1.27 ± 0.11 and the “self-splicing fitness (ln)” value (37 °C) was -1.47 ± 0.17.
The like results for GACAAGCAAUAUUACGAAGU were, in that order, -4.61 ± 0.27 and -2.18 ± 0.14.
In the same order, the values of UACCAGCAAUAUUACGGCGC are -1.32 ± 0.073 and -0.174 ± 0.097.
As to AUUCAGCAAUAUUACGAGAG, the “self-splicing fitness (ln)” value (30 °C) is -2.65 ± 0.11 and the “self-splicing fitness (ln)” value (37 °C) was -1.38 ± 0.1.
In the same order, the values of ACUGAGCAAUAUUACGGAAG are -2.52 ± 0.13 and -1.21 ± 0.2.
In the same order, the values of UUGCAGCAAUAUUACGGAUG are -2.29 ± 0.085 and -1.21 ± 0.1.
UGCCAGCAAUAUUACGUCGG: the “self-splicing fitness (ln)” value was -4.72 ± 0.41 (30 °C) and -2.68 ± 0.25 (37 °C).
The like results for CUUUAGCAAUAUUACGACAG were, in that order, -0.431 ± 0.071 and -0.339 ± 0.097.
In the same order, the values of UUUUAGCAAUAUUACGUUAA are -2.45 ± 0.37 and -2.52 ± 0.48.
In the same order, the values of GGUAAGCAAUAUUACGCGCG are -0.623 ± 0.1 and 0.012 ± 0.14.
As to UGUAAGCAAUAUUACGAAAC, the “self-splicing fitness (ln)” value was -4.22 ± 0.3 (30 °C) and -2.95 ± 0.25 (37 °C).
In the same order, the values of AAGAAGCAAUAUUACGAUCG are -1.23 ± 0.12 and -0.674 ± 0.14.
In the same order, the values of GGAGAGCAAUAUUACGACAC are -0.961 ± 0.28 and 0.238 ± 0.22.
The like results for ACAAAGCAAUAUUACGCGAA were, in that order, -2.41 ± 0.096 and -1.13 ± 0.092.
Turning to GCUGAGCAAUAUUACGUACC, the “self-splicing fitness (ln)” value reads like this: (30 °C) -1.54 ± 0.13; (37 °C) -0.328 ± 0.18.
As to CGCCAGCAAUAUUACGGAUA, the “self-splicing fitness (ln)” value (30 °C) is -1.77 ± 0.18 and the “self-splicing fitness (ln)” value (37 °C) is -1.32 ± 0.21.
The like results for CUUGAGCAAUAUUACGAAAU were, in that order, -2.7 ± 0.2 and -3.68 ± 0.46.
The like results for ACGUAGCAAUAUUACGAAUU were, in that order, -1.42 ± 0.087 and -0.778 ± 0.11.
As for ACCAAGCAAUAUUACGACAU, the “self-splicing fitness (ln)” value by setting is: (30 °C) -1.04 ± 0.011; (37 °C) -0.296 ± 0.032.
In the same order, the values of CUUGAGCAAUAUUACGAUUA are -3.25 ± 0.26 and -2.36 ± 0.35.
Regarding CUAAAGCAAUAUUACGACGC, for the setting “37 °C”, the “self-splicing fitness (ln)” value is -1.39 ± 0.45.
For CUUGAGCAAUAUUACGCUUU, the “self-splicing fitness (ln)” value runs as follows: (30 °C) -2.88 ± 0.32; (37 °C) -3.35 ± 0.31.
The like results for UAGAAGCAAUAUUACGAUCC were, in that order, -2.25 ± 0.23 and -1.45 ± 0.3.
In the same order, the values of CACCAGCAAUAUUACGCUUC are -4.12 ± 0.34 and -1.45 ± 0.13.
In the same order, the values of CAACAGCAAUAUUACGUGCU are -3.48 ± 0.13 and -2.27 ± 0.12.
Consider GUUAAGCAAUAUUACGUGAA, for which the “self-splicing fitness (ln)” value runs as follows: (30 °C) -1.75 ± 0.11; (37 °C) -1.47 ± 0.16.
The like results for GGCAAGCAAUAUUACGGAGG were, in that order, -4.1 ± 0.18 and -2.87 ± 0.16.
The like results for UGAAAGCAAUAUUACGCGGG were, in that order, -2.8 ± 0.13 and -0.83 ± 0.11.
For the sequence UACGAGCAAUAUUACGUGAG, the “self-splicing fitness (ln)” value (30 °C) is -3.28 ± 0.16 and the “self-splicing fitness (ln)” value (37 °C) was -3.58 ± 0.24.
In the same order, the values of GUAUAGCAAUAUUACGCAGA are -2.74 ± 0.32 and -2.71 ± 0.34.
The like results for GUUAAGCAAUAUUACGUGUG were, in that order, -1.93 ± 0.093 and -1.21 ± 0.098.
As for GGGCAGCAAUAUUACGGUAU, the “self-splicing fitness (ln)” value was -1.06 ± 0.081 (30 °C) and -0.373 ± 0.13 (37 °C).
The like results for GCUCAGCAAUAUUACGGUCA were, in that order, -1.12 ± 0.09 and -0.085 ± 0.082.
In the same order, the values of CACGAGCAAUAUUACGUGCG are -3.73 ± 0.19 and -2.09 ± 0.15.
UAUCAGCAAUAUUACGGCAC: the “self-splicing fitness (ln)” value is -2.52 ± 0.17 (30 °C) and -0.753 ± 0.14 (37 °C).
In the same order, the values of GCUCAGCAAUAUUACGUAAC are -1 ± 0.087 and -0.439 ± 0.11.
As to UUCUAGCAAUAUUACGCCAC, under “37 °C”, the “self-splicing fitness (ln)” value was -2.02 ± 0.46.
With ACCGAGCAAUAUUACGUGGC, the “self-splicing fitness (ln)” value runs as follows: (30 °C) -4.18 ± 0.2; (37 °C) -2.21 ± 0.18.
As for UAGUAGCAAUAUUACGCUCA, the “self-splicing fitness (ln)” value (30 °C) is -0.29 ± 0.13 and the “self-splicing fitness (ln)” value (37 °C) amounted to 0.69 ± 0.15.
In the same order, the values of UCUCAGCAAUAUUACGCAGG are -4.14 ± 0.42 and -2.28 ± 0.25.
The like results for CCUUAGCAAUAUUACGCUUU were, in that order, -3.64 ± 0.31 and -2.46 ± 0.22.
In the same order, the values of AAAAAGCAAUAUUACGAACG are -0.0786 ± 0.076 and -0.303 ± 0.1.
Consider CGGCAGCAAUAUUACGGACC, for which the “self-splicing fitness (ln)” value by setting is: (30 °C) -2.09 ± 0.26; (37 °C) -1.26 ± 0.2.
Take GCAUAGCAAUAUUACGAUAC: the “self-splicing fitness (ln)” value (30 °C) is -1.47 ± 0.13 and the “self-splicing fitness (ln)” value (37 °C) was -0.915 ± 0.14.
In the same order, the values of GUAGAGCAAUAUUACGUCUU are -0.122 ± 0.075 and 0.195 ± 0.083.
In the same order, the values of CUCAAGCAAUAUUACGCAUU are -3.4 ± 0.15 and -2.7 ± 0.19.
In the same order, the values of CGUCAGCAAUAUUACGGCGC are -3.38 ± 0.37 and -1.3 ± 0.35.
Take UCGCAGCAAUAUUACGUUUG: the “self-splicing fitness (ln)” value runs as follows: (30 °C) -2.89 ± 0.099; (37 °C) -1.09 ± 0.11.
As for CCACAGCAAUAUUACGCUAG, the “self-splicing fitness (ln)” value by setting is: (30 °C) -3.27 ± 0.12; (37 °C) -1.36 ± 0.1.
For GCUGAGCAAUAUUACGCUAA, the “self-splicing fitness (ln)” value (30 °C) is -3.04 ± 0.32.
As for AAGGAGCAAUAUUACGGCUU, the “self-splicing fitness (ln)” value reads like this: (30 °C) -2.58 ± 0.25; (37 °C) -1.64 ± 0.28.
The like results for ACUUAGCAAUAUUACGGUCA were, in that order, -1.88 ± 0.15 and -0.773 ± 0.15.
The like results for AGCCAGCAAUAUUACGCAUG were, in that order, -2.87 ± 0.11 and -2.2 ± 0.12.
As for GUCUAGCAAUAUUACGGGCG, the “self-splicing fitness (ln)” value is -1.66 ± 0.28 (30 °C) and -0.341 ± 0.17 (37 °C).
In the same order, the values of UACUAGCAAUAUUACGAAAA are -2.6 ± 0.35 and -2.26 ± 0.42.
The like results for UACGAGCAAUAUUACGUUCG were, in that order, -3.48 ± 0.25 and -2.76 ± 0.25.
In the same order, the values of CUUCAGCAAUAUUACGAAUA are -2.77 ± 0.14 and -2.09 ± 0.13.
Consider CAUUAGCAAUAUUACGAACA, for which the “self-splicing fitness (ln)” value (30 °C) is -3.7 ± 0.42 and the “self-splicing fitness (ln)” value (37 °C) is -0.317 ± 0.2.
In the same order, the values of GUACAGCAAUAUUACGCGGG are -1.5 ± 0.092 and -2.71 ± 0.15.
With AGGAAGCAAUAUUACGAGCC, the “self-splicing fitness (ln)” value is -2.25 ± 0.23 (30 °C) and -1.32 ± 0.27 (37 °C).
In the same order, the values of UAAUAGCAAUAUUACGAAUC are -4.21 ± 0.31 and -2.34 ± 0.39.
In the case of AUUCAGCAAUAUUACGAUUU, the “self-splicing fitness (ln)” value (30 °C) amounted to 0.203 ± 0.088 and the “self-splicing fitness (ln)” value (37 °C) is 0.898 ± 0.11.
In the same order, the values of UUGAAGCAAUAUUACGCCUA are 0.0255 ± 0.13 and 0.487 ± 0.22.
In the same order, the values of AACGAGCAAUAUUACGACCA are -2.23 ± 0.18 and -1.53 ± 0.19.
In the same order, the values of GCGCAGCAAUAUUACGAUGG are -1.42 ± 0.11 and 0.113 ± 0.16.
Turning to AAACAGCAAUAUUACGAGUA, the “self-splicing fitness (ln)” value is -1.79 ± 0.1 (30 °C) and -1.68 ± 0.11 (37 °C).
In the same order, the values of AGAAAGCAAUAUUACGAACG are -0.489 ± 0.084 and -0.004 ± 0.12.
In the same order, the values of GUGAAGCAAUAUUACGAAUG are -0.846 ± 0.075 and -0.708 ± 0.11.
The like results for AACAAGCAAUAUUACGGGGA were, in that order, -3.21 ± 0.14 and -0.987 ± 0.087.
As to UUAUAGCAAUAUUACGCCUU, the “self-splicing fitness (ln)” value is, setting by setting: (30 °C) -2.91 ± 0.26; (37 °C) -0.144 ± 0.2.
In the same order, the values of CUUUAGCAAUAUUACGAGGU are -3.4 ± 0.23 and -2.3 ± 0.27.
The like results for GUAUAGCAAUAUUACGGAAC were, in that order, -3.32 ± 0.15 and -1.77 ± 0.13.
For ACGUAGCAAUAUUACGAAAA, the “self-splicing fitness (ln)” value is, setting by setting: (30 °C) -2.5 ± 0.21; (37 °C) -1.58 ± 0.19.
As for AUACAGCAAUAUUACGGCUU, the “self-splicing fitness (ln)” value (30 °C) came to 0.0959 ± 0.047 and the “self-splicing fitness (ln)” value (37 °C) amounted to 0.115 ± 0.057.
Turning to CGCCAGCAAUAUUACGAGCA, the “self-splicing fitness (ln)” value runs as follows: (30 °C) -0.418 ± 0.064; (37 °C) 0.817 ± 0.092.
